This data set is described as follows: total protein half-life in vivo (active degradation + dilution); higher = more stable protein.
[1] abbreviates: E. coli NCM3722 delta-clpP delta-lon delta-hslV, growth: N-lim chemostat, doubling time 6 h.
The mark [2] stands for this setting: E. coli NCM3722 delta-clpP, growth: N-lim chemostat, doubling time 6 h.
Setting [3] is: E. coli NCM3722 delta-hslV, growth: N-lim chemostat, doubling time 6 h.
Setting [4] is: E. coli NCM3722 delta-lon, growth: N-lim chemostat, doubling time 6 h.
Setting [5] is: E. coli NCM3722 delta-smpB, growth: N-lim chemostat, doubling time 6 h.
The mark [6] stands for this setting: wild type E. coli NCM3722, growth: C-lim chemostat, doubling time 3 h.
Where [7] appears, read: wild type E. coli NCM3722, growth: C-lim chemostat, doubling time 6 h.
The mark [8] stands for this setting: wild type E. coli NCM3722, growth: C-lim chemostat, doubling time 12 h.
The mark [9] stands for this setting: wild type E. coli NCM3722, growth: N-lim chemostat, doubling time 6 h.
Where [10] appears, read: wild type E. coli NCM3722, growth: N-lim chemostat, doubling time 12 h.
[11] abbreviates: wild type E. coli NCM3722, growth: P-lim chemostat, doubling time 6 h.
The mark [12] stands for this setting: wild type E. coli NCM3722, growth: P-lim chemostat, doubling time 12 h.

± gives the standard deviation of the averaged measurements.

As for “MRWLPFIAIFLYVYIEISIFIQVAHVLGVLLTLVLVIFTSVIGMSLVRNQGFKNFVLMQQKMAAGENPAAEMIKSVSLIIAGLLLLLPGFFTDFLGLLLLLPPVQKHLTVKLMPHLRFSRMPGGGFSAGTGGGNTFDGEYQRKDDERDRLDHKDDRQD”, the “total protein half-life in vivo” value reads like this: under setting [1], 5.99 ± 0.11 h; under setting [2], 6.83 ± 1.1 h; under setting [3], 6.44 ± 0.84 h; under setting [4], 6.06 ± 0.49 h; under setting [5], 5.53 ± 0.073 h; under setting [6], 2.47 ± 0.28 h. For the same sequence, the “total protein half-life in vivo” value under setting [7] came to 7.17 ± 0.34 h; the “total protein half-life in vivo” value under setting [8] turned out to be 11.7 ± 1.8 h; the “total protein half-life in vivo” value under setting [9] is 6.12 ± 1.3 h; the “total protein half-life in vivo” value under setting [10] was 14.2 h; the “total protein half-life in vivo” value under setting [11] was found to be 5.89 ± 0.25 h; the “total protein half-life in vivo” value under setting [12] was found to be 12.4 ± 0.96 h.
For “MCGIVGIAGVMPVNQSIYDALTVLQHRGQDAAGIITIDANNCFRLRKANGLVSDVFEARHMQRLQGNMGIGHVRYPTAGSSSASEAQPFYVNSPYGITLAHNGNLTNAHELRKKLFEEKRRHINTTSDSEILLNIFASELDNFRHYPLEADNIFAAIAATNRLIRGAYACVAMIIGHGMVAFRDPNGIRPLVLGKRDIDENRTEYMVASESVALDTLGFDFLRDVAPGEAIYITEEGQLFTRQCADNPVSNPCLFEYVYFARPDSFIDKISVYSARVNMGTKLGEKIAREWEDLDIDVVIPIPETSCDIALEIARILGKPYRQGFVKNRYVGRTFIMPGQQLRRKSVRRKLNANRAEFRDKNVLLVDDSIVRGTTSEQIIEMAREAGAKKVYLASAAPEIRFPNVYGIDMPSATELIAHGREVDEIRQIIGADGLIFQDLNDLIDAVRAENPDIQQFECSVFNGVYVTKDVDQGYLDFLDTLRNDDAKAVQRQNEVENLEMHNEG [P0AG16]”, the “total protein half-life in vivo” value by setting is: under setting [1], 5.35 ± 1.5 h; under setting [2], 4.19 ± 0.24 h; under setting [3], 2.31 ± 0.34 h; under setting [4], 2.37 ± 0.23 h; under setting [5], 2.13 ± 0.17 h; under setting [6], 2.301 ± 0.0058 h. Also, the “total protein half-life in vivo” value under setting [7] stood at 4.01 ± 0.4 h; the “total protein half-life in vivo” value under setting [8] worked out at 5.59 ± 0.33 h; the “total protein half-life in vivo” value under setting [9] amounted to 2.25 ± 0.18 h; the “total protein half-life in vivo” value under setting [10] was 2.8937 ± 0.00088 h; the “total protein half-life in vivo” value under setting [11] amounted to 3.6 ± 0.23 h; the “total protein half-life in vivo” value under setting [12] came out at 6.17 ± 0.076 h.
On to “MPLSPYLSFAGNCSDAIAYYQRTLGAELLYKISFGEMPKSAQDSAENCPSGMQFPDTAIAHANVRIAGSDIMMSDAMPSGKASYSGFTLVLDSQQVEEGKRWFDNLAANGKIEMAWQETFWAHGFGKVTDKFGVPWMINVVKQQPTQ”, for which the “total protein half-life in vivo” value was 4.69 ± 0.16 h under setting [1]; 4.35 ± 0.15 h under setting [2]; 5.15 ± 1.1 h under setting [3]; 6.806 ± 0.035 h under setting [4]; 4.57 ± 0.27 h under setting [5]; 3.13 ± 0.35 h under setting [6]. The “total protein half-life in vivo” value came to 5.29 ± 0.48 h under setting [7]; 10.04 ± 0.096 h under setting [8]; 4.31 ± 0.37 h under setting [9]; 8.56 ± 1.2 h under setting [10]; 5.88 ± 0.59 h under setting [11]; 12.4 ± 0.98 h under setting [12].
For “MARAVHRSGLVALGIATALMASCAFAAKDVVVAVGSNFTTLDPYDANDTLSQAVAKSFYQGLFGLDKEMKLKNVLAESYTVSDDGITYTVKLREGIKFQDGTDFNAAAVKANLDRASDPANHLKRYNLYKNIAKTEAIDPTTVKITLKQPFSAFINILAHPATAMISPAALEKYGKEIGFYPVGTGPYELDTWNQTDFVKVKKFAGYWQPGLPKLDSITWRPVADNNTRAAMLQTGEAQFAFPIPYEQATLLEKNKNIELMASPSIMQRYISMNVTQKPFDNPKVREALNYAINRPALVKVAFAGYATPATGVVPPSIAYAQSYKPWPYDPVKARELLKEAGYPNGFSTTLWSSHNHSTAQKVLQFTQQQLAQVGIKAQVTAMDAGQRAAEVEGKGQKESGVRMFYTGWSASTGEADWALSPLFASQNWPPTLFNTAFYSNKQVDDFLAQALKTNDPAEKTRLYKAAQDIIWQESPWIPLVVEKLVSAHSKNLTGFWIMPDTGFSFEDADLQ”, the “total protein half-life in vivo” value came to 5.029 ± 0.012 h under setting [1]; 5.36 ± 0.42 h under setting [2]; 6.42 ± 0.61 h under setting [3]; 6.43 ± 0.089 h under setting [4]; 5.72 ± 0.071 h under setting [5]; 3.21 ± 0.061 h under setting [6]. The “total protein half-life in vivo” value was 6.6 ± 0.26 h under setting [7]; 13 ± 0.86 h under setting [8]; 6.04 ± 0.39 h under setting [9]; 13.2 ± 0.28 h under setting [10]; 5.85 ± 0.27 h under setting [11]; 13.3 ± 0.87 h under setting [12].
In the case of “MTTLLNPYFGEFGGMYVPQILMPALRQLEEAFVSAQKDPEFQAQFNDLLKNYAGRPTALTKCQNITAGTNTTLYLKREDLLHGGAHKTNQVLGQALLAKRMGKTEIIAETGAGQHGVASALASALLGLKCRIYMGAKDVERQSPNVFRMRLMGAEVIPVHSGSATLKDACNEALRDWSGSYETAHYMLGTAAGPHPYPTIVREFQRMIGEETKAQILEREGRLPDAVIACVGGGSNAIGMFADFINETNVGLIGVEPGGHGIETGEHGAPLKHGRVGIYFGMKAPMMQTEDGQIEESYSISAGLDFPSVGPQHAYLNSTGRADYVSITDDEALEAFKTLCLHEGIIPALESSHALAHALKMMRENPDKEQLLVVNLSGRGDKDIFTVHDILKARGEI [P0A879]”, the “total protein half-life in vivo” value by setting is: under setting [1], 3.87 ± 0.32 h; under setting [2], 3.49 ± 0.14 h; under setting [3], 3.48 ± 0.17 h; under setting [4], 3.69 ± 0.27 h; under setting [5], 3.78 ± 0.36 h; under setting [6], 2.95 ± 0.1 h. For the same sequence, the “total protein half-life in vivo” value reads like this: under setting [7], 5.28 ± 0.27 h; under setting [8], 9.833 ± 0.072 h; under setting [9], 3.54 ± 0.042 h; under setting [10], 5.38 ± 0.17 h; under setting [11], 6.4 ± 1.5 h; under setting [12], 11.5 ± 1.2 h.
Consider “MLDTNMKTQLKAYLEKLTKPVELIATLDDSAKSAEIKELLAEIAELSDKVTFKEDNSLPVRKPSFLITNPGSNQGPRFAGSPLGHEFTSLVLALLWTGGHPSKEAQSLLEQIRHIDGDFEFETYYSLSCHNCPDVVQALNLMSVLNPRIKHTAIDGGTFQNEITDRNVMGVPAVFVNGKEFGQGRMTLTEIVAKIDTGAEKRAAEELNKRDAYDVLIVGSGPAGAAAAIYSARKGIRTGLMGERFGGQILDTVDIENYISVPKTEGQKLAGALKVHVDEYDVDVIDSQSASKLIPAAVEGGLHQIETASGAVLKARSIIVATGAKWRNMNVPGEDQYRTKGVTYCPHCDGPLFKGKRVAVIGGGNSGVEAAIDLAGIVEHVTLLEFAPEMKADQVLQDKLRSLKNVDIILNAQTTEVKGDGSKVVGLEYRDRVSGDIHNIELAGIFVQIGLLPNTNWLEGAVERNRMGEIIIDAKCETNVKGVFAAGDCTTVPYKQIIIATGEGAKASLSAFDYLIRTKTA”, for which the “total protein half-life in vivo” value under setting [1] was 3.63 ± 0.29 h; the “total protein half-life in vivo” value under setting [2] turned out to be 2.59 ± 0.18 h; the “total protein half-life in vivo” value under setting [3] amounted to 2.67 ± 0.26 h; the “total protein half-life in vivo” value under setting [4] is 2.81 ± 0.1 h; the “total protein half-life in vivo” value under setting [5] amounted to 2.68 ± 0.052 h; the “total protein half-life in vivo” value under setting [6] is 2.949 ± 0.0042 h. Also, the “total protein half-life in vivo” value runs as follows: under setting [7], 4.6889 ± 0.00064 h; under setting [8], 7.3 ± 0.34 h; under setting [9], 2.56 ± 0.047 h; under setting [10], 3.37 ± 0.05 h; under setting [11], 5.26 ± 0.2 h; under setting [12], 9.723 ± 0.068 h.
Turning to “MHPTGPHLGPDVLFRESNMKVTLTFNEQRRAAYRQQGLWGDASLADYWQQTARAMPDKIAVVDNHGASYTYSALDHAASCLANWMLAKGIESGDRIAFQLPGWCEFTVIYLACLKIGAVSVPLLPSWREAELVWVLNKCQAKMFFAPTLFKQTRPVDLILPLQNQLPQLQQIVGVDKLAPATSSLSLSQIIADNTSLTTAITTHGDELAAVLFTSGTEGLPKGVMLTHNNILASERAYCARLNLTWQDVFMMPAPLGHATGFLHGVTAPFLIGARSVLLDIFTPDACLALLEQQRCTCMLGATPFVYDLLNVLEKQPADLSALRFFLCGGTTIPKKVARECQQRGIKLLSVYGSTESSPHAVVNLDDPLSRFMHTDGYAAAGVEIKVVDDARKTLPPGCEGEEASRGPNVFMGYFDEPELTARALDEEGWYYSGDLCRMDEAGYIKITGRKKDIIVRGGENISSREVEDILLQHPKIHDACVVAMSDERLGERSCAYVVLKAPHHSLSLEEVVAFFSRKRVAKYKYPEHIVVIEKLPRTTSGKIQKFLLRKDIMRRLTQDVCEEIE”, the “total protein half-life in vivo” value under setting [1] worked out at 7.05 h.
Consider “MGSPSLYSARKTTLALAVALSFAWQAPVFAHGGEAHMVPMDKTLKEFGADVQWDDYAQLFTLIKDGAYVKVKPGAQTAIVNGQPLALQVPVVMKDNKAWVSDTFINDVFQSGLDQTFQVEKRPHPLNALTADEIKQAVEIVKASADFKPNTRFTEISLLPPDKEAVWAFALENKPVDQPRKADVIMLDGKHIIEAVVDLQNNKLLSWQPIKDAHGMVLLDDFASVQNIINNSEEFAAAVKKRGITDAKKVITTPLTVGYFDGKDGLKQDARLLKVISYLDVGDGNYWAHPIENLVAVVDLEQKKIVKIEEGPVVPVPMTARPFDGRDRVAPAVKPMQIIEPEGKNYTITGDMIHWRNWDFHLSMNSRVGPMISTVTYNDNGTKRKVMYEGSLGGMIVPYGDPDIGWYFKAYLDSGDYGMGTLTSPIARGKDAPSNAVLLNETIADYTGVPMEIPRAIAVFERYAGPEYKHQEMGQPNVSTERRELVVRWISTVGNYDYIFDWIFHENGTIGIDAGATGIEAVKGVKAKTMHDETAKDDTRYGTLIDHNIVGTTHQHIYNFRLDLDVDGENNSLVAMDPVVKPNTAGGPRTSTMQVNQYNIGNEQDAAQKFDPGTIRLLSNPNKENRMGNPVSYQIIPYAGGTHPVAKGAQFAPDEWIYHRLSFMDKQLWVTRYHPGERFPEGKYPNRSTHDTGLGQYSKDNESLDNTDAVVWMTTGTTHVARAEEWPIMPTEWVHTLLKPWNFFDETPTLGALKKDK”, for which the “total protein half-life in vivo” value by setting is: under setting [1], 4.75 h; under setting [5], 5.04 ± 0.69 h; under setting [6], 2.69 h; under setting [7], 6.4 ± 0.067 h; under setting [8], 6.83 h; under setting [10], 11.8 h. Also, the “total protein half-life in vivo” value under setting [12] was 11.1 ± 0.71 h.
With “MPRFFTRHAATLFFPMALILYDFAAYLSTDLIQPGIINVVRDFNADVSLAPAAVSLYLAGGMALQWLLGPLSDRIGRRPVLITGALIFTLACAATMFTTSMTQFLIARAIQGTSICFIATVGYVTVQEAFGQTKGIKLMAIITSIVLIAPIIGPLSGAALMHFMHWKVLFAIIAVMGFISFVGLLLAMPETVKRGAVPFSAKSVLRDFRNVFCNRLFLFGAATISLSYIPMMSWVAVSPVILIDAGSLTTSQFAWTQVPVFGAVIVANAIVARFVKDPTEPRFIWRAVPIQLVGLSLLIVGNLLSPHVWLWSVLGTSLYAFGIGLIFPTLFRFTLFSNKLPKGTVSASLNMVILMVMSVSVEIGRWLWFNGGRLPFHLLAVVAGVIVVFTLAGLLNRVRQHQAAELVEEQ”, under setting [2], the “total protein half-life in vivo” value came to 7.03 h.
